In publication PMC8402755:

Target: HIV-1 RT (HIV-1, UniProt P03366;P03366 600-1159;600-1039)
Test: off-rate (dissociation with trap); dissociates much more slowly than from dsDNA N1
Conditions: protein: recombinant; copies: 1;1; label: 5'-32P on the 33 nt DNA primer; 33 nt DNA primer on 50 nt RNA template; template 5' overhang 15 nt, 3' overhang 2 nt

B1: D33-R50 RNA/DNA hybrid primer-template (DNA:RNA)
DNA: TCCCCGGGTACCGAGCTCGAATTCGCCCTATAG
RNA: UUGUAAUACGACUCACUAUAGGGCGAAUUCGAGCUCGGUACCCGGGGAUC
**Q.** Does B1 bind?
**A.** binds
